In experiment [1] the target is T1, GIRK1/4 channel (Rattus norvegicus, UniProt P48548+P63251).
T1 construct: expressed in transfected cells; host or cells: Xenopus laevis oocytes (cRNA injection)
T1 sequence (P63251 1-501): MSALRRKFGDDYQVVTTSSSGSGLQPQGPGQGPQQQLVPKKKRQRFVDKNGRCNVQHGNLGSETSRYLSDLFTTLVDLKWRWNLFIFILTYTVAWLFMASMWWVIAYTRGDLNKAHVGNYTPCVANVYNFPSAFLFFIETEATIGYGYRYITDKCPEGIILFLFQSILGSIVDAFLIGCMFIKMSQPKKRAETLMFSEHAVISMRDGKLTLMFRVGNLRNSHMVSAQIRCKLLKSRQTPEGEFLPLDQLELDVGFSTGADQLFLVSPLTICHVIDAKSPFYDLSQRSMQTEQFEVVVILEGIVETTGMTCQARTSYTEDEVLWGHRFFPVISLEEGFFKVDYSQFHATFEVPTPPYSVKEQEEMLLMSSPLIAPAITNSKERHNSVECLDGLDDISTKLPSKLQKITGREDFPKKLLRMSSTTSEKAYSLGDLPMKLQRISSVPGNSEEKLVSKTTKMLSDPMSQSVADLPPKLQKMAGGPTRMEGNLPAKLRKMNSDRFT
T1 sequence (P48548 1-419): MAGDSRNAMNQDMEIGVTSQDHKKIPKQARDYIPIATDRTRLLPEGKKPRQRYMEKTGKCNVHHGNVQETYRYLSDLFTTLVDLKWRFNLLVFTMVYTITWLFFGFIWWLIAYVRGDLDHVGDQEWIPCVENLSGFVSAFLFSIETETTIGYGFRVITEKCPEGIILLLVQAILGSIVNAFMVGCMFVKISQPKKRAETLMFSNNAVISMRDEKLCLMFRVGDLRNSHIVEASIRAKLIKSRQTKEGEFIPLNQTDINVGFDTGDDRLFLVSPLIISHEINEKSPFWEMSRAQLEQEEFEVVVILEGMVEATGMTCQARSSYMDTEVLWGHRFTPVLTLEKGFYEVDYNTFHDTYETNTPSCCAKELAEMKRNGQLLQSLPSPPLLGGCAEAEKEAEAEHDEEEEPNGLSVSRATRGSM
Briefly: cell-based. The following applies: for inhibition at 1 µM: read-out: inhibition of the GIRK1/4 channel.

The target in experiment [2] is T2, GIRK1/4 inward-rectifier K+ channel, P63251.
T2 chain 1: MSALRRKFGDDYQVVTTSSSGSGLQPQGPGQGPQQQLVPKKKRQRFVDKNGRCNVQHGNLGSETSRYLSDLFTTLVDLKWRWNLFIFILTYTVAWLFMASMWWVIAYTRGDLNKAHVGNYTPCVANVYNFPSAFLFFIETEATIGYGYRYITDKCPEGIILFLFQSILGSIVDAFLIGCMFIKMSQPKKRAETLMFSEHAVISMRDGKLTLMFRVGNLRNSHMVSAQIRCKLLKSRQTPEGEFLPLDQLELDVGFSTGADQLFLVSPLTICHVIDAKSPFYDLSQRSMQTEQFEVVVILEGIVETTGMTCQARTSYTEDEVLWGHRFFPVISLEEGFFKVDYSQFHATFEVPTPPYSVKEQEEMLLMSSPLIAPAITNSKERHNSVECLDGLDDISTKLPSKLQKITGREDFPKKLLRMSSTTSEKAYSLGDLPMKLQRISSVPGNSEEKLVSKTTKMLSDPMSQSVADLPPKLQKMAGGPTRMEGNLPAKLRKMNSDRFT
T2 chain 2: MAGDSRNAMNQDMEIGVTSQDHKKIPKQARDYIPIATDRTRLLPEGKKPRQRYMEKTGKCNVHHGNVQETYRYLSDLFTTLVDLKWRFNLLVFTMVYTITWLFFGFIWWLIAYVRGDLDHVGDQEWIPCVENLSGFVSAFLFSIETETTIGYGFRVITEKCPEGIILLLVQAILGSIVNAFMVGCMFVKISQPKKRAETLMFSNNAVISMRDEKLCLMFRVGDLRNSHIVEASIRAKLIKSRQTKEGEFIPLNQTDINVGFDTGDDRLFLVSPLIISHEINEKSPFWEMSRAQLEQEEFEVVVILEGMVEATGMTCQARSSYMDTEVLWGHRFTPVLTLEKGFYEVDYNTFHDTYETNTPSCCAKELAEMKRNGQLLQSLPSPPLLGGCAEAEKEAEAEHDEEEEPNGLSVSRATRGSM

Experiment [3] addresses T2, GIRK1/4 inward-rectifier K+ channel, ….
For experiment [4] the target is unchanged.
The target in experiment [5] is T3, ROMK1 inward-rectifier K+ channel (wild-type), P35560.
T3 chain: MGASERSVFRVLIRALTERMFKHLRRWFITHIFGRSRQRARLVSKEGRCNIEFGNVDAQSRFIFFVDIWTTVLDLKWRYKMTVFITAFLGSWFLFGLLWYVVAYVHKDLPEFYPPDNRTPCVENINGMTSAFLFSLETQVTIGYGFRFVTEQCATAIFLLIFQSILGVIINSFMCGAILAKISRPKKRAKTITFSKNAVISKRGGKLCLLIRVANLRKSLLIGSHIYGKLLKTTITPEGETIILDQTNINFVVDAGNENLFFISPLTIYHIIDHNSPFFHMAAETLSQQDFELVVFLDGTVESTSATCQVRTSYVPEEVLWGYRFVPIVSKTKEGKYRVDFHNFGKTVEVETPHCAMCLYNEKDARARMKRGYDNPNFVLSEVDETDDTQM

Experiment [6] addresses T4, ROMK1 N171D channel, P35560.
T4 chain: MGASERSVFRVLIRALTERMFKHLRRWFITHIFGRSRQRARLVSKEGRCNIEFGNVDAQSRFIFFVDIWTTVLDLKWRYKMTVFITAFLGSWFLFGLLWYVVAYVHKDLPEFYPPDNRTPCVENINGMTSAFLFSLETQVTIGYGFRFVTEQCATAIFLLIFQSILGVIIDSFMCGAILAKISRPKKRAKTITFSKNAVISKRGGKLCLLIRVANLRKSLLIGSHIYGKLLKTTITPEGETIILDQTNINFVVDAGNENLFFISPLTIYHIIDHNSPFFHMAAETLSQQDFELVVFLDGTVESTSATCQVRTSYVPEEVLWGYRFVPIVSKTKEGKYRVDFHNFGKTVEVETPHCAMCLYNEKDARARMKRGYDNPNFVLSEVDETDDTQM

For experiment [7], the target named is T5, ROMK1 F146A channel, P35560.
T5 chain: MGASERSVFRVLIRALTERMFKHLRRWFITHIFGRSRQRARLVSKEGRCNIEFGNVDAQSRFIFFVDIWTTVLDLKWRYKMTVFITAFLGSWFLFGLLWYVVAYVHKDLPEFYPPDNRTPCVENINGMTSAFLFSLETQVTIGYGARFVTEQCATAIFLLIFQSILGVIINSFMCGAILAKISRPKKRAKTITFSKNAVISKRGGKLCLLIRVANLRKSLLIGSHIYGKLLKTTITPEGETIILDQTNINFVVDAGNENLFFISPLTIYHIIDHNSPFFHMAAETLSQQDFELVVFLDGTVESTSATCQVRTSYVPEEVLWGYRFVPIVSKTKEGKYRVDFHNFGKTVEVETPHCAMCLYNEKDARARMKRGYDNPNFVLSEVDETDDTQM

Experiment [8] addresses T6, ROMK1 G127S channel, P35560.
T6 chain: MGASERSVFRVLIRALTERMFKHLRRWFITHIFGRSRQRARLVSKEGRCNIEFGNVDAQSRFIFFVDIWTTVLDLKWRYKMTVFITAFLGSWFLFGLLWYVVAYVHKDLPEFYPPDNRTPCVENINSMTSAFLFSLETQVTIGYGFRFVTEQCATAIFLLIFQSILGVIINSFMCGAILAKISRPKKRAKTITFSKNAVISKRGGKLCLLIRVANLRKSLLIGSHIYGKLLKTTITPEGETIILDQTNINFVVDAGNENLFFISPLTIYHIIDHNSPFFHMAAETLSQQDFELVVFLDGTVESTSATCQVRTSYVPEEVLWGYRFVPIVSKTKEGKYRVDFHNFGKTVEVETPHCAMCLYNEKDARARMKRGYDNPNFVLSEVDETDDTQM

Experiment [9] deals with T7, ROMK1 N124A channel, P35560.
T7 chain: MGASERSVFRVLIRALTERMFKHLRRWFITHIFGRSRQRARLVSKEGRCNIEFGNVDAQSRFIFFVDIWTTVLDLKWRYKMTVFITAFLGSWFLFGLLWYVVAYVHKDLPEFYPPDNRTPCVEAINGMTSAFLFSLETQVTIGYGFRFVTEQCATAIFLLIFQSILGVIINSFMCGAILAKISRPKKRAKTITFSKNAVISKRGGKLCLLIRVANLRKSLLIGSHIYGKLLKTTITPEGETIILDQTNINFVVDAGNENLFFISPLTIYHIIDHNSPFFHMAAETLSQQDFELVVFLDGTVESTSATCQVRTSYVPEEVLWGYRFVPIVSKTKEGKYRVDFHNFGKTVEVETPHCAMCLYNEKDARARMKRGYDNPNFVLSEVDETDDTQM

In experiment [10] the target is T2, GIRK1/4 inward-rectifier K+ channel, …. Description: cell-based or functional assay.
Experiment [11] concerns the target T8, ROMK1 I142L channel, P35560.
T8 chain: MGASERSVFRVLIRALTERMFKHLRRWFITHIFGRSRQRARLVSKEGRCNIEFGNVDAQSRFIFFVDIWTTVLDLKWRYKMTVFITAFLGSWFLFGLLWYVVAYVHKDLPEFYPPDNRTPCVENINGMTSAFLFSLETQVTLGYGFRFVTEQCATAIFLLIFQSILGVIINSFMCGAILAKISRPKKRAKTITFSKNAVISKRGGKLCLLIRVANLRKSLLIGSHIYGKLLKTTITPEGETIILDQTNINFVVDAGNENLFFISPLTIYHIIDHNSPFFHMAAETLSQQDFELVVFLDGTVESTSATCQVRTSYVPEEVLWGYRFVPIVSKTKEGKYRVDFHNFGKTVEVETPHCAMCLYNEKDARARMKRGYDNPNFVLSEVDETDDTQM

Where two headings read alike, the source gives them in different places. Peptide text beside a SMILES is read from it.

With `CC[C@H](C)[C@H](N)C(=O)N[C@@H](CCCCN)C(=O)N[C@H]1CSSC[C@@H]2NC(=O)[C@H]([C@@H](C)CC)NC(=O)[C@H](Cc3c[nH]cn3)NC(=O)[C@@H]3CCCN3C(=O)[C@H](CCCCN)NC(=O)[C@H]([C@@H](C)CC)NC(=O)[C@H](C(C)C)NC(=O)[C@H](Cc3c[nH]cn3)NC(=O)[C@H](CCCNC(=N)N)NC(=O)[C@H](CCCCN)NC(=O)[C@H](CSSC[C@@H](C(=O)NCC(=O)N[C@@H](CCCCN)C(=O)N[C@@H](CC(N)=O)C(N)=O)NC(=O)[C@H]([C@@H](C)CC)NC(=O)[C@H](CCCCN)NC(=O)[C@H](CCCNC(=N)N)NC2=O)NC(=O)[C@H](CC(N)=O)NC1=O` [MCDP, mast cell degranulating peptide] (HELM PEPTIDE1{I.K.C.N.C.K.R.H.V.I.K.P.H.I.C.R.K.I.C.G.K.N.[am]}$PEPTIDE1,PEPTIDE1,3:R3-15:R3|PEPTIDE1,PEPTIDE1,5:R3-19:R3$$$V2.0; N-terminus and C-terminus assumed; bridges inferred), in experiment [1], the “effect on / sensitivity of the GIRK1/4 channel, in words” value was “do not inhibit the activity” and the inhibition at 1 µM lay within 20 to 30%.
What is called Kd is the constant that tells how readily two partners part at equilibrium. Consider `CC(C)C[C@@H]1NC(=O)[C@H](C)NC(=O)[C@H]([C@@H](C)O)NC(=O)[C@H](CCC(=O)O)NC(=O)[C@@H]2CCCN2C(=O)[C@H](C)NC(=O)[C@H](CCCCN)NC(=O)[C@@H]2CSSC[C@@H](C(=O)N[C@@H](CCC(N)=O)C(=O)N[C@@H](CCC(N)=O)C(=O)N[C@@H](Cc3cnc[nH]3)C(N)=O)NC(=O)[C@H](CCCNC(=N)N)NC(=O)[C@H](CCCNC(=N)N)NC(=O)[C@H](C)NC(=O)[C@H](CSSC[C@H](N)C(=O)N[C@@H](CC(N)=O)C(=O)N2)NC1=O` [apamin], for which the dissociation constant (Kd) in [1] (GIRK1/4, read-out: affinity of the channel (Kd)) was over 1000 nM. Besides, in [1] (at 1 μM concentration), the inhibition at 1 µM was in the range of 20 to 30%.
With CNCKAPETALCARRCQQH (modifications not checked) [apamin, P01500 28-45], the fold lower affinity than for tertiapin in experiment [2] is over 100 fold. This molecule had a Kd in [3] of over 1000 nM.
On the same counts, the results for IKCNCKRHVIKPHICRKICGKN (modifications not checked) [mast cell degranulating peptide, P01499 28-49] are over 100 fold and over 1000 nM.
In the case of ALCNCNRIIIPHMCWKKCGKK (modifications not checked) [synthetic tertiapin], the Kd worked out at 8.6 nM in experiment [4]; 2 nM in experiment [5]; 1.5 nM in [6]; 8 nM in [2]; 65.2 nM in [7]; 2.7 nM in experiment [8]. The same molecule registered a dissociation constant (Kd) in experiment [9] of 13.9 nM. Moreover, the inhibition of the GIRK1/4 current at 10 nM in experiment [10] turned out to be 50%. This molecule also registered a fold lower affinity than the wild-type ROMK1 channel in experiment [11] of 8 fold.
As for ALCNCNRIIIPHMCWKKCGKK (modifications not checked) [native tertiapin], the Kd in [4] is 8.2 nM.

For the origin of these results see patent publication US6979572B1, “Compositions and methods for inhibiting inward-rectifier potassium channels” (Trustees of the University of Pennsylvania, priority 1998, dated 2005).
